We go through one protein from PMC2930322 (PLoS ONE, 2010).

This series concerns the molecule itself. Briefly: atomic force microscopy; assembled 1 h at 37°C in 25 mM Tris-HCl (pH 7.5) with NaCl (vimentin 0.1 mg/ml, 125 mM NaCl; K5/K14 0.1 mg/ml, 50-100 mM NaCl), adsorbed to mica, flushed with water, dried, imaged in air in acoustic mode.

B1: Human K5/K14 heterodimers (complex)
chain 1: MSRQSSVSFRSGGSRSFSTASAITPSVSRTSFTSVSRSGGGGGGGFGRVSLAGACGVGGYGSRSLYNLGGSKRISISTSGGSFRNRFGAGAGGGYGFGGGAGSGFGFGGGAGGGFGLGGGAGFGGGFGGPGFPVCPPGGIQEVTVNQSLLTPLNLQIDPSIQRVRTEEREQIKTLNNKFASFIDKVRFLEQQNKVLDTKWTLLQEQGTKTVRQNLEPLFEQYINNLRRQLDSIVGERGRLDSELRNMQDLVEDFKNKYEDEINKRTTAENEFVMLKKDVDAAYMNKVELEAKVDALMDEINFMKMFFDAELSQMQTHVSDTSVVLSMDNNRNLDLDSIIAEVKAQYEEIANRSRTEAESWYQTKYEELQQTAGRHGDDLRNTKHEISEMNRMIQRLRAEIDNVKKQCANLQNAIADAEQRGELALKDARNKLAELEEALQKAKQDMARLLREYQELMNTKLALDVEIATYRKLLEGEECRLSGEGVGPVNISVVTSSVSSGYGSGSGYGGGLGGGLGGGLGGGLAGGSSGSYYSSSSGGVGLGGGLSVGGSGFSASSGRGLGVGFGSGGGSSSSVKFVSTTSSSRKSFKS
chain 2: MTTCSRQFTSSSSMKGSCGIGGGIGGGSSRISSVLAGGSCRAPSTYGGGLSVSSSRFSSGGACGLGGGYGGGFSSSSSSFGSGFGGGYGGGLGAGLGGGFGGGFAGGDGLLVGSEKVTMQNLNDRLASYLDKVRALEEANADLEVKIRDWYQRQRPAEIKDYSPYFKTIEDLRNKILTATVDNANVLLQIDNARLAADDFRTKYETELNLRMSVEADINGLRRVLDELTLARADLEMQIESLKEELAYLKKNHEEEMNALRGQVGGDVNVEMDAAPGVDLSRILNEMRDQYEKMAEKNRKDAEEWFFTKTEELNREVATNSELVQSGKSEISELRRTMQNLEIELQSQLSMKASLENSLEETKGRYCMQLAQIQEMIGSVEEQLAQLRCEMEQQNQEYKILLDVKTRLEQEIATYRRLLEGEDAHLSSSQFSSGSQSSRDVTSSSRQIRTKVMDVHDGKVVSTHEQVLRTKN
notes: keratin K5 (keratin, type II cytoskeletal 5), human; keratin K14 (keratin, type I cytoskeletal 14), human; Named only as a heterodimer; the two chains are never tested against each other or one by one; also called keratin K5/K14; K5/K14 subunits; source: expressed and purified as described [17]; stored in 6 M urea, dialysed into 2 mM Tris-HCl (pH 9), 1 mM DTT
B1: the binding result is on record as “binds”.
